Assay results reported in patent publication US20160235855A1, “STABLE AQUEOUS PARENTERAL PHARMACEUTICAL COMPOSITIONS OF INSULINOTROPIC PEPTIDES” (SHANGHAI BENEMAE PHARMACEUTICAL CORPORATION, priority 2013, published 2016).
Entries after “also recorded” stand apart in the source; their conditions may differ.

How the values were obtained:
[1] = Observation of appearance with the naked eye (physical stability); type: physicochemical
From the text: Each buffer was also designed to have 4 salt concentrations.
(§1) If there was evident precipitation or turbidity, no further determination would be carried out. If the samples had no abnormal phenomena observable with the naked eye, the samples were taken and subjected to determination of absorption values at 360 nm and HPLC detection, wherein the former investigated the physical stability, and the latter investigated the chemical stability.
The solutions were mixed uniformly, filtered through a 0.22 μm filter membrane, dispensed into 2 mL Penicillin bottles, and placed at different temperatures for investigation. A series of sampling time points were arranged. After sampling, the samples were firstly observed with the naked eye for appearance.
The solutions were adjusted to pH 3.5-4.0, mixed uniformly, filtered through a 0.22 μm filter membrane, dispensed into 2 mL Penicillin bottles, and placed at different temperatures for investigation. A series of sampling time points were arranged. The samples were firstly observed with the naked eye for appearance. If no evident turbidity or gelatination was occurred, the sample was considered as qualified as for physical stability, and then subjected to HPLC detection to analyze the chemical stability.

[2] = Absorption values at 360 nm (physical stability); type: physicochemical; conditions: for Absorption values at 360 nm: 8 days
From the text: as §1
Absorption values determined at a wavelength of 360 nm were compared, so as to compare differences in physical stability among the samples. A higher absorption value indicated poorer physical stability.

For Glucagon-like peptide 1 [GLP-1], the “Situations of samples after preparation” value ([1]; 20 mmol/L Na2HPO4-NaH2PO4 pH 7.0, NaCl 0 mmol/L) was “Clear and transparent”, the “Situations of samples after preparation” value ([1]; 20 mmol/L Na2HPO4-NaH2PO4 pH 7.0, NaCl 20 mmol/L) was “Clear and transparent” and the “Situations of samples after preparation” value ([1]; 20 mmol/L Na2HPO4-NaH2PO4 pH 7.0, NaCl 150 mmol/L) was “Clear and transparent”. For the same substance, the “Situations of samples after preparation” value ([1]; 20 mmol/L Na2HPO4-NaH2PO4 pH 7.0, NaCl 500 mmol/L) was “Clear and transparent”, the “Situations of samples after preparation” value ([1]; 20 mmol/L Na2HPO4-NaH2PO4 pH 7.5, NaCl 0 mmol/L) was “Clear and transparent” and the “Situations of samples after preparation” value ([1]; 20 mmol/L Na2HPO4-NaH2PO4 pH 7.5, NaCl 20 mmol/L) was “Clear and transparent”. For the same substance, the “Situations of samples after preparation” value ([1]; 20 mmol/L Na2HPO4-NaH2PO4 pH 7.5, NaCl 150 mmol/L) was “Clear and transparent”, the “Situations of samples after preparation” value ([1]; 20 mmol/L Na2HPO4-NaH2PO4 pH 7.5, NaCl 500 mmol/L) was “Clear and transparent” and the “Situations of samples after preparation” value ([1]; 20 mmol/L NaAC-HAC pH 3.0, NaCl 0 mmol/L) was “Clear and transparent”. The “Situations of samples after preparation” value ([1]; 20 mmol/L NaAC-HAC pH 3.0, NaCl 20 mmol/L) was “Clear and transparent”, the “Situations of samples after preparation” value ([1]; 20 mmol/L NaAC-HAC pH 3.0, NaCl 150 mmol/L) was “Clear and transparent” and the “Situations of samples after preparation” value ([1]; 20 mmol/L NaAC-HAC pH 3.0, NaCl 500 mmol/L) was “Clear and transparent”. The “Situations of samples after preparation” value ([1]; 20 mmol/L NaAC-HAC pH 3.5, NaCl 0 mmol/L) was “Clear and transparent”, the “Situations of samples after preparation” value ([1]; 20 mmol/L NaAC-HAC pH 3.5, NaCl 20 mmol/L) was “Clear and transparent” and the “Situations of samples after preparation” value ([1]; 20 mmol/L NaAC-HAC pH 3.5, NaCl 150 mmol/L) was “Clear and transparent”. For the same substance, the “Situations of samples after preparation” value ([1]; 20 mmol/L NaAC-HAC pH 3.5, NaCl 500 mmol/L) was “Turbid”, the “Situations of samples after preparation” value ([1]; 20 mmol/L NaAC-HAC pH 4.0, NaCl 0 mmol/L) was “Clear and transparent” and the “Situations of samples after preparation” value ([1]; 20 mmol/L NaAC-HAC pH 4.0, NaCl 20 mmol/L) was “Clear and transparent”. The “Situations of samples after preparation” value ([1]; 20 mmol/L NaAC-HAC pH 4.0, NaCl 150 mmol/L) was “Clear and transparent”, the “Situations of samples after preparation” value ([1]; 20 mmol/L NaAC-HAC pH 4.0, NaCl 500 mmol/L) was “Turbid” and the “Situations of samples after preparation” value ([1]; 20 mmol/L NaAC-HAC pH 4.5, NaCl 0 mmol/L) was “Difficult to filter”. The “Situations of samples after preparation” value ([1]; 20 mmol/L NaAC-HAC pH 4.5, NaCl 20 mmol/L) was “Difficult to filter”, the “Situations of samples after preparation” value ([1]; 20 mmol/L NaAC-HAC pH 4.5, NaCl 150 mmol/L) was “Difficult to filter” and the “Situations of samples after preparation” value ([1]; 20 mmol/L NaAC-HAC pH 4.5, NaCl 500 mmol/L) was “Difficult to filter,; also recorded: turbid”. The “Situations of samples after preparation” value ([1]; 20 mmol/L NaAC-HAC pH 5.0, NaCl 0, 20, 150, 500 mmol/L) was “Turbid or precipitated”, the “Situations of samples after preparation” value ([1]; 20 mmol/L citrate sodium-citric acid pH 5.5, NaCl 0, 20, 150, 500 mmol/L) was “Turbid or precipitated” and the “Situations of samples after preparation” value ([1]; 20 mmol/L citrate sodium-citric acid pH 6.0, NaCl 0 mmol/L) was “Precipitate sticking”. The “Situations of samples after preparation” value ([1]; 20 mmol/L citrate sodium-citric acid pH 6.0, NaCl 20 mmol/L) was “Precipitate sticking”, the “Situations of samples after preparation” value ([1]; 20 mmol/L citrate sodium-citric acid pH 6.0, NaCl 150 mmol/L) was “Precipitate sticking” and the “Situations of samples after preparation” value ([1]; 20 mmol/L citrate sodium-citric acid pH 6.0, NaCl 500 mmol/L) was “Precipitate sticking”. The “Situations of samples after preparation” value ([1]; 20 mmol/L citrate sodium-citric acid pH 6.5, NaCl 0 mmol/L) was “Turbid”, the “Situations of samples after preparation” value ([1]; 20 mmol/L citrate sodium-citric acid pH 6.5, NaCl 20 mmol/L) was “Turbid” and the “Situations of samples after preparation” value ([1]; 20 mmol/L citrate sodium-citric acid pH 6.5, NaCl 150 mmol/L) was “Turbid”. The “Situations of samples after preparation” value ([1]; 20 mmol/L citrate sodium-citric acid pH 6.5, NaCl 500 mmol/L) was “Turbid”, the “Appearance of the sample” value ([1]; pH 3.0) was “no turbidity or precipitation” and the “Appearance of the sample” value ([1]; pH 3.5 and pH 4.0, 0.5 M NaCl) was “turbidity”. For the same substance, the “Appearance of the sample (no determination carried out)” value ([1]; pH 4.0, NaCl 29.22 mg/mL) was “Samples became turbid after formulation”, the “Appearance of the sample prepared” value ([1]; pH 4.5) was “clear and transparent” and the “Appearance of the sample (no determination carried out)” value ([1]; pH 4.5, NaCl 29.22 mg/mL) was “Samples became turbid after formulation”. The “Appearance after formulation and heating treatment” value ([1]; pH 4.5, high salt concentration) was “turbidity”, the “Appearance while the GLP-1 sample was prepared” value ([1]; pH 5.0 to 6.5) was “turbidity or precipitation” and the “Appearance of the sample (no determination carried out)” value ([1]; pH 6.5, NaCl 0, 1.17, 8.77, 29.22 mg/mL) was “Turbidity was generated after formulation and”. For the same substance, the Appearance ([1]; pH value between about 4.5 and 6.5) was “turbidity or precipitation”, the “Absorption values at 360 nm” value ([2]; pH 3.0, NaCl 0 mg/mL, 35° C.) was 0.0706 and the “Absorption values at 360 nm” value ([2]; pH 3.0, NaCl 0 mg/mL, 45° C.) was 0.0844. The “Absorption values at 360 nm” value ([2]; pH 3.0, NaCl 1.17 mg/mL, 35° C.) was 0.0716, the “Absorption values at 360 nm” value ([2]; pH 3.0, NaCl 1.17 mg/mL, 45° C.) was 0.0724 and the “Absorption values at 360 nm” value ([2]; pH 3.0, NaCl 8.77 mg/mL, 45° C.) was 0.1812. The “Absorption values at 360 nm” value ([2]; pH 3.0, NaCl 29.22 mg/mL, 35° C.) was 0.2052, the “Absorption values at 360 nm” value ([2]; pH 3.0, NaCl 29.22 mg/mL, 45° C.) was 0.2417 and the “Absorption values at 360 nm” value ([2]; pH 3.5, NaCl 0 mg/mL, 35° C.) was 0.0684. For the same substance, the “Absorption values at 360 nm” value ([2]; pH 3.5, NaCl 0 mg/mL, 45° C.) was 0.0689, the “Absorption values at 360 nm” value ([2]; pH 3.5, NaCl 1.17 mg/mL, 35° C.) was 0.0694 and the “Absorption values at 360 nm” value ([2]; pH 3.5, NaCl 1.17 mg/mL, 45° C.) was 0.0823. The “Absorption values at 360 nm” value ([2]; pH 3.5, NaCl 8.77 mg/mL, 35° C.) was 0.1882, the “Absorption values at 360 nm” value ([2]; pH 3.5, NaCl 8.77 mg/mL, 45° C.) was 0.1780 and the “Absorption values at 360 nm” value ([2]; pH 4.0, NaCl 0 mg/mL, 35° C.) was 0.0686. For the same substance, the “Absorption values at 360 nm” value ([2]; pH 4.0, NaCl 0 mg/mL, 45° C.) was 0.0843, the “Absorption values at 360 nm” value ([2]; pH 4.0, NaCl 1.17 mg/mL, 35° C.) was 0.1354 and the “Absorption values at 360 nm” value ([2]; pH 4.0, NaCl 1.17 mg/mL, 45° C.) was 0.1448. For the same substance, the “Absorption values at 360 nm” value ([2]; pH 4.0, NaCl 8.77 mg/mL, 35° C.) was 0.1907, the “Absorption values at 360 nm” value ([2]; pH 4.0, NaCl 8.77 mg/mL, 45° C.) was 0.1974 and the “Absorption values at 360 nm” value ([2]; pH 4.5, NaCl 0 mg/mL, 35° C.) was 0.1326. For the same substance, the “Absorption values at 360 nm” value ([2]; pH 4.5, NaCl 0 mg/mL, 45° C.) was 0.1370, the “Absorption values at 360 nm” value ([2]; pH 4.5, NaCl 1.17 mg/mL, 35° C.) was 0.1655 and the “Absorption values at 360 nm” value ([2]; pH 4.5, NaCl 1.17 mg/mL, 45° C.) was 0.1814. For the same substance, the “Absorption values at 360 nm” value ([2]; pH 7.0, NaCl 0 mg/mL, 35° C.) was 0.0813, the “Absorption values at 360 nm” value ([2]; pH 7.0, NaCl 0 mg/mL, 45° C.) was 0.0828 and the “Absorption values at 360 nm” value ([2]; pH 7.0, NaCl 1.17 mg/mL, 35° C.) was 0.0864. The “Absorption values at 360 nm” value ([2]; pH 7.0, NaCl 1.17 mg/mL, 45° C.) was 0.0865, the “Absorption values at 360 nm” value ([2]; pH 7.0, NaCl 8.77 mg/mL, 35° C.) was 0.0824 and the “Absorption values at 360 nm” value ([2]; pH 7.0, NaCl 8.77 mg/mL, 45° C.) was 0.0841. For the same substance, the “Absorption values at 360 nm” value ([2]; pH 7.0, NaCl 29.22 mg/mL, 35° C.) was 0.0850, the “Absorption values at 360 nm” value ([2]; pH 7.0, NaCl 29.22 mg/mL, 45° C.) was 0.0862 and the physical stability ([2]; pH 7.0 and 7.5) was “normal”. The “Absorption values at 360 nm” value ([2]; pH 7.5, NaCl 0 mg/mL, 35° C.) was 0.0807, the “Absorption values at 360 nm” value ([2]; pH 7.5, NaCl 0 mg/mL, 45° C.) was 0.0859 and the “Absorption values at 360 nm” value ([2]; pH 7.5, NaCl 1.17 mg/mL, 35° C.) was 0.0799. The “Absorption values at 360 nm” value ([2]; pH 7.5, NaCl 1.17 mg/mL, 45° C.) was 0.0937, the “Absorption values at 360 nm” value ([2]; pH 7.5, NaCl 8.77 mg/mL, 35° C.) was 0.0846 and the “Absorption values at 360 nm” value ([2]; pH 7.5, NaCl 8.77 mg/mL, 45° C.) was 0.0902. For the same substance, the “Absorption values at 360 nm” value ([2]; pH 7.5, NaCl 29.22 mg/mL, 35° C.) was 0.0861 and the “Absorption values at 360 nm” value ([2]; pH 7.5, NaCl 29.22 mg/mL, 45° C.) was 0.0942.
